Laboratory results published in paper PMC3785227.

Target: stripped core gp120 (HIV strain YU2), displayed on yeast (HIV-1 strain YU2)
Assay: flow cytometry on cells

| Substance | Kd [nM] |
| --- | --- |
| b12, broadly neutralizing anti-gp120 antibody against the CD4 binding site | 0.041 |
| b13, non-neutralizing CD4 binding site-directed anti-gp120 antibody | 0.9 |
